Measured values taken from ChEMBL document CHEMBL2074568, “Characterization of the transport properties of human multidrug resistance protein 7 (MRP7, ABCC10)” (Mol Pharmacol, 2003).

Substrate: C[C@]12CC[C@@H]3c4ccc(O)cc4CC[C@H]3[C@@H]1CC[C@@H]2O[C@@H]1O[C@H](C(=O)O)[C@@H](O)[C@H](O)[C@H]1O
Assay: TP_TRANSPORTER: uptake in membrane vesicles from MRP7-expressing HEK293 cells
Assay type: functional, cell membranes
Details: Membrane vesicle

B1: ATP-binding cassette sub-family C member 10 (Homo sapiens), Q5T3U5 (protein)
chain: MERLLAQLCGSSAAWPLPLWEGDTTGHCFTQLVLSALPHALLAVLSACYLGTPRSPDYILPCSPGWRLRLAASFLLSVFPLLDLLPVALPPGAGPGPIGLEVLAGCVAAVAWISHSLALWVLAHSPHGHSRGPLALALVALLPAPALVLTVLWHCQRGTLLPPLLPGPMARLCLLILQLAALLAYALGWAAPGGPREPWAQEPLLPEDQEPEVAEDGESWLSRFSYAWLAPLLARGACGELRQPQDICRLPHRLQPTYLARVFQAHWQEGARLWRALYGAFGRCYLALGLLKLVGTMLGFSGPLLLSLLVGFLEEGQEPLSHGLLYALGLAGGAVLGAVLQNQYGYEVYKVTLQARGAVLNILYCKALQLGPSRPPTGEALNLLGTDSERLLNFAGSFHEAWGLPLQLAITLYLLYQQVGVAFVGGLILALLLVPVNKVIATRIMASNQEMLQHKDARVKLVTELLSGIRVIKFCGWEQALGARVEACRARELGRLRVIKYLDAACVYLWAALPVVISIVIFITYVLMGHQLTATKVFTALALVRMLILPLNNFPWVINGLLEAKVSLDRIQLFLDLPNHNPQAYYSPDPPAEPSTVLELHGALFSWDPVGTSLETFISHLEVKKGMLVGIVGKVGCGKSSLLAAIAGELHRLRGHVAVRGLSKGFGLATQEPWIQFATIRDNILFGKTFDAQLYKEVLEACALNDDLSILPAGDQTEVGEKGVTLSGGQRARIALARAVYQEKELYLLDDPLAAVDADVANHLLHRCILGMLSYTTRLLCTHRTEYLERADAVLLMEAGRLIRAGPPSEILPLVQAVPKAWAENGQESDSATAQSVQNPEKTKEGLEEEQSTSGRLLQEESKKEGAVALHVYQAYWKAVGQGLALAILFSLLLMQATRNAADWWLSHWISQLKAENSSQEAQPSTSPASMGLFSPQLLLFSPGNLYIPVFPLPKAAPNGSSDIRFYLTVYATIAGVNSLCTLLRAVLFAAGTLQAAATLHRRLLHRVLMAPVTFFNATPTGRILNRFSSDVACADDSLPFILNILLANAAGLLGLLAVLGSGLPWLLLLLPPLSIMYYHVQRHYRASSRELRRLGSLTLSPLYSHLADTLAGLSVLRATGATYRFEEENLRLLELNQRCQFATSATMQWLDIRLQLMGAAVVSAIAGIALVQHQQGLANPGLVGLSLSYALSLTGLLSGLVSSFTQTEAMLVSVERLEEYTCDLPQEPQGQPLQLGTGWLTQGGVEFQDVVLAYRPGLPNALDGVTFCVQPGEKLGIVGRTGSGKSSLLLVLFRLLEPSSGRVLLDGVDTSQLELAQLRSQLAIIPQEPFLFSGTVRENLDPQGLHKDRALWQALKQCHLSEVITSMGGLDGELGEGGRSLSLGQRQLLCLARALLTDAKILCIDEATASVDQKTDQLLQQTICKRFANKTVLTIAHRLNTILNSDRVLVLQAGRVVELDSPATLRNQPHSLFQQLLQSSQQGVPASLGGP
Km: 57.8 µM
